Measured values reported in the supplement of paper PMC11780869.

System: Bacillus subtilis
Experiment: cleaved RNA product abundance (RNA/gDNA barcode ratio) relative to median wild-type variant (ratio to wild type); higher = more accumulation of the downstream cleavage product
Procedure, shortened: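 Oligos with a 9% error rate were used to build barcoded, mutagenized RNase Y cleavage-site windows within truncated aprE or tetM reporter mRNAs, which were integrated into the B. subtilis chromosome. Cultures were grown in LB at 37°C between OD600 0.0003 and 0.3. Cleaved RNA was gel-selected, reverse transcribed and barcode-sequenced, as were genomic DNA barcodes, and UMIs were collapsed. Cleaved product abundance is the scaled RNA:gDNA barcode ratio, with the median construct carrying the unmutated site as reference.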

[1] = experiment (reporter, strain, medium): exp 4a: truncated aprE reporter, strain BJT201 with 2% xylose (RNase J1 expressed), cleavage site: cggR-gapA (positions -7 to +36 mutated)
[2] = experiment (reporter, strain, medium): exp 8a: truncated aprE reporter, strain BJT201 with 2% xylose (RNase J1 expressed), cleavage site: glnRA (positions -5 to +31 mutated)
[3] = experiment (reporter, strain, medium): exp 2b: truncated aprE reporter, strain BJT200, cleavage site: cggR-gapA (positions -7 to +36 mutated)
[4] = experiment (reporter, strain, medium): exp 6: tetM reporter, strain 168, cleavage site: cggR-gapA (positions -7 to +36 mutated)

Sequence	cleaved RNA product abundance [1]	cleaved RNA product abundance [2]	cleaved RNA product abundance [3]	other results
ACAGACGAAGGAGCCGCAAAGAAGTTATTAAGGAAGGAATAATCCCTCAATATAAATATCTCTCACTTATTTAAA	0.233	–	–	–
ACAGACGAAGGAGCCGCAAAGAAGTTATTAAGGGATGAAAAATCCCTCAATAGAAATATCTCTCACTTATTTAAA	0.192	–	–	–
CGACATGTCCCGCTTCTTTCATTAATCCGTTAGCAACTTTTTTGCTATATACATTTACATTTTAAGAGGAGGAAT	–	1.72	–	–
ACAGACGAAGGAGCCGCAAAGAAGTTATTAAAGGATGAATAATCCCTCAATATAAATGTCTCTCACTTATTTAAA	0.155	–	0.136	–
CGACATGTCCCGCTTCTTTCATTAATACGTTAGCAACTGTTTTGCTATTTACATTTACCTTTTAAGAGGAGGAAT	–	0.232	–	–
ACAGACGAAGGAGCCGCAAAGAAGTTATTAAGGGATTAATAATCCCTCAATGTAAATATCTCTCACTTATTTAAA	0.108	–	–	–
ACAGACGAAGGAGCCCCAAAGAAGTTATTAAGGGATGAATAATCCCTCAATATAAATATCTCTCACTTATTTAAA	–	–	–	cleaved RNA product abundance [4]: 1.36
ACAGACGAAGGAGCCGCAAAGAAGTTATTAAGGAATGAATAATCCCTCAATATAAAAATCTCTCACTTATTTAAA	0.161	–	0.127	–
ACAGACGAAGGAGCCGCAAAGAAGTTATTAAAGGATGAATAATCCCTCAATATAAATATTTCTCACTTATTTAAA	0.247	–	–	–
CGACATGTCCCGCTTCTTTCATTAATCCGTAAGCAACTGTTTTGCTATATACTTTTACCTTTTAAGAGGAGGAAT	–	0.307	–	–
ACAGACGAAGGAGCCGCAAAGAAGTTATTAAGGGTTGAATGATCCCTCAATATAAATATCTCTCACTTATTTAAA	–	–	0.298	–
ACAGACGAAGGAGCCGCAAAAAAGTTATTAAGAGATGAATAATTCCTCAATATAAATATCTCTCACTTATTTAAA	0.159	–	–	–
ACAGACGAAGGAGCCGCAAAGAAGTTATAAAGGGATGAATACTCCCTCAATATAAATATCTCTCACTTATTTAAA	0.287	–	–	–
ACAGACGAAGGAGCCGCAAAGAAGTTATTAAGGGATGAATAATACTTCAATATAAATATCTCTCACTTATTTAAA	0.111	–	0.094	–
CGACATGTCCCGCTTCTTTCATTAATCCGTTAGCAACTGTTTTGCTATATACTTTTACCATTTAAGAGGAGGAAT	–	0.769	–	–
ACAGACGAAGGAGCCGCAAAGAAGTTATTAAGGGATGATTAATCCTTCAATATAAATATCTCTCACTTATTTAAA	0.469	–	0.306	–
CGACATGTCCCGCTTCTTTCATTAATCCCTTAGCAACTCTTTTGCTATATACATTTACCTTTTAAGAGGAGGAAT	–	0.0915	–	–
CGACATGTCCCGCTTCTTTCATTAATCCGTTAGCAACTGTTTTGCTATATAGATTTACCTTTTAAGAGGAGGAAT	–	1.11	–	–
ACAGACGAAGGAGCCGCAAAGAAGTGAATAAGGGATGAATAATCCCTCAATATAAATATCTCTCACTTATTTAAA	0.296	–	–	–
ACAGACGAAGGAGCCGCAAAGAAGTTATTAAGGGATGAAAAATCCCTCATTATAAATATCTCTCACTTATTTAAA	0.331	–	0.226	–

Sequence	cleaved RNA product abundance [1]	cleaved RNA product abundance [2]	cleaved RNA product abundance [3]	other results
ACAGACGAAGGAGCCGCAAAGAATTTATTAAGGAATGAATAATCCCTCAATATAAATATCTCTCACTTATTTAAA	0.125	–	0.0897	–
CGACATGTCCCGCTTCTTTCATTAATCCGTTAGGAACTGTTTTGCTATATACATTTGCCTTTTAAGAGGAGGAAT	–	0.376	–	–
ACAGACGAAGGAGCCGCAAAGAAGTTATTAAGGTATGAATAATCCCTTAATATAAATATCTCTCACTTATTTAAA	0.461	–	0.709	cleaved RNA product abundance [4]: 0.236
ACAGACGAAGGAGCCGCAAAGAAGTTATTAAAGGATGAACAATCCCTCAATATAAATATCTCTCACTTATTTAAA	0.207	–	0.0976	–
CGACATGTCCCGCTTCTTTCATTAATACGTTAGCAACTGTTTTTCTATATACATTTACCTTTTAAGAGGAGGAAT	–	0.455	–	–
ACAGACGAAGGAGCCGCAAAGAATTTTTTAAGGGATGAATAATCCCTCAATATAAATATCTCTCACTTATTTAAA	0.216	–	–	–
ACAGACGAAGGAGCCGCAAAGAAGTTATTAAAGGATGAATAATGCCTCAATATAAATATCTCTCACTTATTTAAA	0.087	–	0.118	–
CGACATGTCCCGCTTCTTTCATTAATCCGTTAGAAACTGTTTTGCTATATTCATTTACCTTTTAAGAGGAGGAAT	–	0.268	–	–
CGACATGTCCCGCTTCTTTCATTAATCTGTTAGCAACTGTTTTGCTATATACTTTTACCTTTTAAGAGGAGGAAT	–	0.728	–	–
CGACATGTCCCGCTTCTTTCATTAATCCGTTAGCAACTGTTTTACTATATTCATTTACCTTTTAAGAGGAGGAAT	–	0.189	–	–
CGACATGTCCCGCTTCTTTCATTAATCCGTTTGCAACTGTTTTGCTATATACATATACCTTTTAAGAGGAGGAAT	–	0.478	–	–
ACAGACGAAGGAGCCGCAATGAAGTTATTAAGGGATGAATAATCCTTCAATATAAATATCTCTCACTTATTTAAA	0.581	–	–	–
ACAGACGAAGGAGCCGCAAAGAAGTTATTAAGGGAAGAATAATCCCTCAATATGAATATCTCTCACTTATTTAAA	0.0705	–	–	–
ACAGACGAAGGAGCCGCATAGAAGTTATTAAGGGATCAATAATCCCTCAATATAAATATCTCTCACTTATTTAAA	1.04	–	–	–
ACAGACGAAGGAGCCGCAAAGAAGTTATTAAGGGATGAATAATCCGTCGATATAAATATCTCTCACTTATTTAAA	0.106	–	0.0608	–
CGACATGTCCCGCTTCTTTCATTAATCCGTTAGAAACTGTTTTCCTATATACATTTACCTTTTAAGAGGAGGAAT	–	0.317	–	–
CGACATGTCCCGCTTCTTTCATTAATCCGTTAGCAAATGTTTTGCTATATACATTTACCTTTTAAGAGGAGGAAT	–	1.17	–	–
ACAGACGAAGGAGCCGCAAAGAAATTATTAAGGGATGAATAATTCCTCAATATAAATATCTCTCACTTATTTAAA	0.415	–	0.457	–
CGACATGTCCCGCTTCTTTCATTAATCCGTCAGCAACTGTTTTGCTATATACATTAACCTTTTAAGAGGAGGAAT	–	0.528	–	–
CGACATGTCCCGCTTCTTTCATTAATCCGTTAGAAACTGTTTTGCTATTTACATTTACCTTTTAAGAGGAGGAAT	–	0.127	–	–

Sequence	cleaved RNA product abundance [1]	cleaved RNA product abundance [2]	cleaved RNA product abundance [3]	other results
ACAGACGAAGGAGCCGCAAAGAAGTTATAAAGGGAAGAATAATCCCTCAATATAAATATCTCTCACTTATTTAAA	0.322	–	0.174	–
ACAGACGAAGGAGCCGCAAAGAAGTTATTAAGGGCTGAATAATTCCTCAATATAAATATCTCTCACTTATTTAAA	–	–	0.0668	–
ACAGACGAAGGAGCTGCAAAGAAGTTATTAAGGAATGAATAATCCCTCAATATAAATATCTCTCACTTATTTAAA	–	–	–	cleaved RNA product abundance [4]: 0.134
ACAGACGAAGGAGCCGCAAAGAAGTTATTAAGGGATCAATAAACCCTCAATATAAATATCTCTCACTTATTTAAA	0.429	–	0.518	–
ACAGACGAAGGAGCCGCAAAGAAGTTATTAAGGGATGAATAATCTCTGAATATAAATATCTCTCACTTATTTAAA	0.634	–	–	–
CGACATGTCCCGCTTCTTTCATTAAACCGTTAGCAACTGTTTTGCTATATACATATACCTTTTAAGAGGAGGAAT	–	0.825	–	–
ACAGACGAAGGAGCCGCACAGAAGTTATTTAGGGATGAATAATCCCTCAATATAAATATCTCTCACTTATTTAAA	0.843	–	–	–
CGACATGTCCCGCTTCTTTCATTAATCCGTTAGCAACTATTTTGCTATCTACATTTACCTTTTAAGAGGAGGAAT	–	0.108	–	–
ACAGACGAAGGAGCCGCAAAGAAGTTATTAAGCGATGAATAATCACTCAATATAAATATCTCTCACTTATTTAAA	0.101	–	–	–
ACAGACGAAGGAGCCGCAAAGAAGTTATTAAGGGATGAAGAATACCTCAATATAAATATCTCTCACTTATTTAAA	0.106	–	–	–
ACAGACGAAGGAGCCGCAAAGAAGTTATTAAGGGATTAATAATGCCTCAATATAAATATCTCTCACTTATTTAAA	0.125	–	0.14	–
ACAGACGAAGGAGCCGCAAAGAAGTTATTAAAGGATGAATAATCCCTCAATATAAATATATCTCACTTATTTAAA	0.259	–	–	–
ACAGACGAAGGAGCCGCAAAGAAGTAATTCAGGGATGAATAATCCCTCAATATAAATATCTCTCACTTATTTAAA	0.325	–	–	–
ACAGACGAAGGAGCCGCAAAGAAGTTATTAAGGTATTAATAATCCCTCAATATAAATATCTCTCACTTATTTAAA	0.169	–	0.0984	–
CGACATGTCCCGCTTCTTTCATTATTCCGTTACCAACTGTTTTGCTATATACATTTACCTTTTAAGAGGAGGAAT	–	0.289	–	–
ACAGACGAAGGAGCCGCAAACAAGTTATTAAGGGATCAATAATCCCTCAATATAAATATCTCTCACTTATTTAAA	0.443	–	–	–
CGACATGTCCCGCTTCTTTCATTAATCCGTTAGCAACTGTTTTGCTATATACATTTACTTTTTAAGAGGAGGAAT	–	1.23	–	–
ACAGACGAAGGAGCCGCAAAGACGTCATTAAGGGATGAATAATCCCTCAATATAAATATCTCTCACTTATTTAAA	0.449	–	–	–
ACAGACGAAGGAGCCGCAAAGAAGTTATTAAGTAATGAATAACCCCTCAATATAAATATCTCTCACTTATTTAAA	0.127	–	0.084	–
CGACATGTCCCGCTTCTTTCATTAATCCGTTAGCAACTATTTTGCTATATACATTTACCCTTTAAGAGGAGGAAT	–	0.937	–	–
